Experiment [1] has as its target T1, FZD6 cysteine-rich domain (CRD), MYC-tagged and GPI-anchored on CHO cells (human, UniProt O60353 20-146, GPI anchor).
T1 construct: also called FZD6 CRD; CHO-myc-FZDGPI; not shown: MYC tag and GPI anchor signal
T1 sequence: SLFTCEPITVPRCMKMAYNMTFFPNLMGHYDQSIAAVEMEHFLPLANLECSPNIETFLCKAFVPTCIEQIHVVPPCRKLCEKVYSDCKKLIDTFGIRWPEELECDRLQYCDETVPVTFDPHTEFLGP
The experiment can be described thus: immunofluorescence, CHO-CRD cells.

The target in experiment [2] is T2, FZD9 cysteine-rich domain (CRD), MYC-tagged and GPI-anchored on CHO cells (human, UniProt O00144 35-161, GPI anchor).
T2 construct: also called FZD9 CRD; CHO-myc-FZDGPI; not shown: MYC tag and GPI anchor signal
T2 sequence: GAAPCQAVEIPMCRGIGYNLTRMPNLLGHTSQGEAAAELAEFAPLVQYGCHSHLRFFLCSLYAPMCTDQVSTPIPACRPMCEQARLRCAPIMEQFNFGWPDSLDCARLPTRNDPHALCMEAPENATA
Description: immunofluorescence, CHO-CRD cells.

Experiment [3] has as its target T3, FZD10 cysteine-rich domain (CRD), MYC-tagged and GPI-anchored on CHO cells (human, UniProt Q9ULW2 30-156, GPI anchor).
T3 construct: also called FZD10 CRD; CHO-myc-FZDGPI; not shown: MYC tag and GPI anchor signal
T3 sequence: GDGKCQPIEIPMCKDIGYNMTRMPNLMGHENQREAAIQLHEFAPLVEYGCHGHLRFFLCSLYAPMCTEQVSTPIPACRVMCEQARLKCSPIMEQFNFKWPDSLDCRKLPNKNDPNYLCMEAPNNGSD
Description: immunofluorescence, CHO-CRD cells.

Experiment [4] addresses T4, FZD3 cysteine-rich domain (CRD), MYC-tagged and GPI-anchored on CHO cells (human, UniProt Q9NPG1 24-150, GPI anchor).
T4 construct: domain: cysteine-rich domain (CRD); also called FZD3 CRD; CHO-myc-FZDGPI; not shown: MYC tag and GPI anchor signal
T4 sequence (looked up): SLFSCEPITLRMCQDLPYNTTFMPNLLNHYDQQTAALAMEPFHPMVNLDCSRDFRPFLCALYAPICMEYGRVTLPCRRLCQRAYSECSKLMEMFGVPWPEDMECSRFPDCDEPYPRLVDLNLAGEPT
Description: immunofluorescence, CHO-CRD cells.

Experiment [5] concerns the target T1, FZD6 cysteine-rich domain (CRD), …. Description: flow cytometry, CHO-CRD cells.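 Also: flow cytometry of Fab binding to CHO cells overexpressing a Frizzled CRD, with binding defined as median fluorescence over twice that of CHO cells lacking any Frizzled CRD.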
Description: (§1) Binding was measured via flow cytometry analysis of CHO cells overexpressing CRD of FZD1, FZD2, FZD3, FZD4, FZD5, FZD6, FZD7, FZD8, FZD9 or FZD10. Median fluorescence values are shown.
Experiment [6] addresses T5, FZD8 cysteine-rich domain (CRD), MYC-tagged and GPI-anchored on CHO cells (human, UniProt Q498S8 31-155 (rat entry), GPI anchor).
T5 construct: also called FZD8 CRD; CHO-myc-FZDGPI; not shown: MYC tag and GPI anchor signal
T5 sequence: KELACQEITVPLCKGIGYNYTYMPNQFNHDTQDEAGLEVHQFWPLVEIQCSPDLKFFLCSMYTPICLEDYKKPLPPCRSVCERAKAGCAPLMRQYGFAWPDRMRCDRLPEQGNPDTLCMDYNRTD
The experiment can be described thus: flow cytometry, CHO-CRD cells.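 Also: flow cytometry of Fab binding to CHO cells overexpressing a Frizzled CRD, with binding defined as median fluorescence over twice that of CHO cells lacking any Frizzled CRD.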 On the technique in general: Flow cytometry measures light scatter and fluorescence of single cells or particles in a stream.

In experiment [7] the target is T2, FZD9 cysteine-rich domain (CRD), …. The experiment can be described thus: flow cytometry, CHO-CRD cells.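 Also: flow cytometry of Fab binding to CHO cells overexpressing a Frizzled CRD, with binding defined as median fluorescence over twice that of CHO cells lacking any Frizzled CRD.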
Description: as §1
The target in experiment [8] is T6, FZD5 cysteine-rich domain (CRD), MYC-tagged and GPI-anchored on CHO cells (human, UniProt Q13467 29-156, GPI anchor).
T6 construct: also called FZD5 CRD; CHO-myc-FZDGPI; not shown: MYC tag and GPI anchor signal
T6 sequence: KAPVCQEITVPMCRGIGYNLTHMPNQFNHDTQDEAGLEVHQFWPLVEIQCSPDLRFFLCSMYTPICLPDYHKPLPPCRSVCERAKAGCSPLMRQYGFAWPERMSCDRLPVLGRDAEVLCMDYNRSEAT
The experiment can be described thus: flow cytometry, CHO-CRD cells.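 Also: flow cytometry of Fab binding to CHO cells overexpressing a Frizzled CRD, with binding defined as median fluorescence over twice that of CHO cells lacking any Frizzled CRD.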

Experiment [9] addresses T3, FZD10 cysteine-rich domain (CRD), …. The experiment can be described thus: flow cytometry, CHO-CRD cells.
Description: as §1
Experiment [10] addresses FZD7 cysteine-rich domain (CRD), MYC-tagged and GPI-anchored on CHO cells (human, UniProt O75084 45-169). Description: flow cytometry, CHO-CRD cells.
Description: as §1
In experiment [11] the target is FZD1 cysteine-rich domain (CRD), MYC-tagged and GPI-anchored on CHO cells (human). The experiment can be described thus: flow cytometry, CHO-CRD cells.
Description: as §1
Experiment [12] addresses T4, FZD3 cysteine-rich domain (CRD), …. Description: flow cytometry, CHO-CRD cells.
Description: as §1
Experiment [13] has as its target FZD2 cysteine-rich domain (CRD), MYC-tagged and GPI-anchored on CHO cells (human, UniProt Q14332 35-161). Description: flow cytometry, CHO-CRD cells.
Description: as §1
Experiment [14] addresses T7, FZD4 cysteine-rich domain (CRD), MYC-tagged and GPI-anchored on CHO cells (human, UniProt Q9ULV1 42-167, GPI anchor).
T7 construct: also called FZD4 CRD; CHO-myc-FZDGPI; not shown: MYC tag and GPI anchor signal
T7 sequence: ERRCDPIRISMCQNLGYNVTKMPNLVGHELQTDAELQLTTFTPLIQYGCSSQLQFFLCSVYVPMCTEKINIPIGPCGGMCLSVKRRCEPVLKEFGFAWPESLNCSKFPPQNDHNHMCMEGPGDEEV
The experiment can be described thus: flow cytometry, CHO-CRD cells.

For experiment [15], the target named is T7, FZD4 cysteine-rich domain (CRD), …. Description: immunofluorescence, CHO-CRD cells.

Residue numbers refer to the chain shown, from its start.

B1: Fab-2930 (Fab, V domains shown)
VH: EVQLVESGGGLVQPGGSLRLSCAASGFNLSYYYIHWVRQAPGKGLEWVASIYPYSGSTSYADSVKGRFTISADTSKNTAYLQMNSLRAEDTAVYYCARGALDYWGQGTLVTVSS
VL: DIQMTQSPSSLSASVGDRVTITCRASQSVSSAVAWYQQKPGKAPKLLIYSASSLYSGVPSRFSGSRSGTDFTLTISSLQPEDFATYYCQQWYGPYLITFGQGTKVEIK
notes: Fab; also called Fv-2930
As to B1, the binding result in [1], in [2], in experiment [3] and in experiment [4] was “no binding” throughout. The median fluorescence turned out to be 3.79 in experiment [5]; 13.8 in experiment [6]; 4.87 in experiment [7]; 33.1 in experiment [8]; 4.37 in experiment [9]; 22.2 in experiment [10]. For the same molecule, the median fluorescence in experiment [11] came out at 30.1; in [12], 6.26.

B2: Fab-2899 (Fab, V domains shown)
VH: B1 VH with S30Y, I34M, Y54S
VL: DIQMTQSPSSLSASVGDRVTITCRASQSVSSAVAWYQQKPGKAPKLLIYSASSLYSGVPSRFSGSRSGTDFTLTISSLQPEDFATYYCQQWYSSYGLITFGQGTKVEIK
notes: Fab; also called Fv-2899
Take B2: the binding result in experiment [1], in experiment [2], in experiment [3] and in experiment [4] was “no binding” in each case. The median fluorescence in experiment [5] worked out at 4.37; in [13], 20.7; in [6], 12.8; in [7], 4.7; in experiment [8], 33.7; in experiment [9], 5. In addition, the median fluorescence in experiment [10] was 54.2; in [11] it was 19.5; in [12], 7.91.

B3: Fab-2912 (Fab, V domains shown)
VH: EVQLVESGGGLVQPGGSLRLSCAASGFNISYSYIHWVRQAPGKGLEWVASISSSSGYTSYADSVKGRFTISADTSKNTAYLQMNSLRAEDTAVYYCARTVRGSKKPYFSGWAMDYWGQGTLVTVSS
VL: B1 VL with W91F, G93F
notes: Fab; also called Fv-2912
For the molecule B3, the binding result in experiment [1], in experiment [2], in experiment [3] and in experiment [4] was “no binding” in each case. For the same molecule, the median fluorescence in experiment [5] turned out to be 4.1; in [13], 19.8; in [6], 7.57; in [14], 47; in experiment [7], 4.45; in experiment [8] it was 32.2. In addition, the median fluorescence in experiment [9] came out at 3.82; in experiment [10], 56.7; in experiment [11] it was 41; in [12] it was 4.61.

B4: Fab-2904 (Fab, V domains shown)
VH: EVQLVESGGGLVQPGGSLRLSCAASGFNIYSYSMHWVRQAPGKGLEWVAYISSSYGYTSYADSVKGRFTISADTSKNTAYLQMNSLRAEDTAVYYCARSWYAWAMDYWGQGTLVTVSS
VL: DIQMTQSPSSLSASVGDRVTITCRASQSVSSAVAWYQQKPGKAPKLLIYSASSLYSGVPSRFSGSRSGTDFTLTISSLQPEDFATYYCQQSSYSLITFGQGTKVEIK
notes: Fab; also called Fv-2904
In the case of B4, the binding result in experiment [1], in experiment [2], in [3] and in [4] was “no binding” throughout. Further, the median fluorescence came out at 3.59 in [5]; 12 in experiment [13]; 10.1 in experiment [6]; 3.37 in experiment [7]; 29.7 in experiment [8]; 3.43 in [9]. Further, the values for the median fluorescence in experiment [10], in [11] and in [12] were 42.9, 15.5 and 4.14, respectively.

B5: Fab-2907 (Fab, V domains shown)
VH: EVQLVESGGGLVQPGGSLRLSCAASGFNIYSSYMHWVRQAPGKGLEWVASISSYSGSTYYADSVKGRFTISADTSKNTAYLQMNSLRAEDTAVYYCARSSWGAYIVSYGFDYWGQGTLVTVSS
VL: B2 VL with W91V, Y92G, S93Y, S94W, Y95W
notes: Fab; also called Fv-2907
In the case of B5, the binding result in experiment [1], in experiment [15], in experiment [2], in [3] and in experiment [4] was “no binding” each time. Further, the median fluorescence in experiment [5] is 3.06; in experiment [14], 3.96; in experiment [7], 2.86; in experiment [9], 2.76; in [12] it was 3.79.

B6: Fab-2933 (Fab, V domains shown)
VH: B3 VH with I29L, S30Y, Y31S, I34M, S52Y, S55Y
VL: DIQMTQSPSSLSASVGDRVTITCRASQSVSSAVAWYQQKPGKAPKLLIYSASSLYSGVPSRFSGSRSGTDFTLTISSLQPEDFATYYCQQFWWYASWLFTFGQGTKVEIK
notes: Fab; also called Fv-2933
Regarding B6, the binding result in experiment [1] and in experiment [4] was “no binding” throughout. Besides, the median fluorescence in [5] is 4.1; in experiment [6], 26.7; in experiment [14], 46.4; in [7], 143; in experiment [8], 34.9; in experiment [9] it was 21.1. For the same molecule, the median fluorescence came out at 8.74 in experiment [10], 14.5 in experiment [11] and 4.1 in [12].

The values are drawn from patent US20210253718A1 (MODMAB THERAPEUTICS, published 2021).
